40 sequences from the nanobody polyreactivity screen of Harvey et al. (2022) can be followed below.

A short description of this series: yeast display, Sf9 membrane polyspecificity reagent, FACS + sequencing; frameworks hold sequencing errors. In short, it runs like this: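 Sorting gates, low and high (top ~1%), were placed on anti-HA fluorescence to track expression and on streptavidin fluorescence to track reagent binding. A clone's polyreactivity label is taken from the gate it came out of. The reagent was 10% biotinylated, detergent-solubilized Sf9 membrane, applied for 1 hour at 4 °C to galactose-induced yeast display cells.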
As for “QVQLVESGGGLVQAGGSLRLSCAASGRSFRRYAMGWYRQAPVKDRELVATNTSNGGSTYYADSVKGRFTISRDNAMHTVDFQLNSLKPEDTAVYYCARDLTYYRSRYDYWGQGTQVTVSS”, the “polyreactivity (PSR sort gate)” value is reported as “high polyreactivity”. The entry for “QVQLVESGGGLVQAGGSLRLSCAASGFTFGPYAMGWYRQAPGNEMELVAGITWSGASTYYADSVKGRFTISRDNAKNTVYLQMNSLNPEDSAVYYCARYYRLVSRYDYWGQGRQVTVSS” is “low polyreactivity”. As for “QVQLVESGGGLVQAGGSLRLSCAASGRTFYRNAMGWSRQAPGKEREFVAVISVSGGSTYYADSVKGRFTISRDNAKNTVYLQMISLKPEDTAVYYCAKRGPVRQTANDYWGPGTQVTVSS”, the “polyreactivity (PSR sort gate)” value is “low polyreactivity”.

Regarding “QVQLVESGGGLVQAGGSLRLSCAASGSTLKLYVMGWYRQAPGKERELVAAISYSGGSTNYADSVKGRFTISRDNAKNTVYLQMNSLKPEDTAVYYCAAAGYKWYYKYYYWGQGTQVTVSS”, the “polyreactivity (PSR sort gate)” value is “high polyreactivity”. Turning to “QVQLVESGGGLVQAGGSLRLSCAASGFTFRRYAMGWYRQAPGKERELVAGITGRGGSTYYADSVKGRFTISRDNAKNTVYLQMNSLKPEDTAVYYCNKPRAARGYLTGQLDYWGQGTQVTVSS”, the “polyreactivity (PSR sort gate)” value is given as “high polyreactivity”. In the case of “QFQLVESGGGLVHAGGSLRLSCAASGITFQWNSMGWYRQAPGKERELVAVISSDGRTYYADSVKGRFTISRDNAKYTVYLQMNSLKPEDTAVYYCNADRSVIHRGYIWQPGRNDYWGHGTQVTVSS”, the “polyreactivity (PSR sort gate)” value is on record as “low polyreactivity”. Next, “QVQLVESGGGLVQAGRSLRLNCAASGSIIKYNAMGWYRPAPGKERELVASISSSGGTTYYADSVKGRFTISRDNAKNTVYLQMNRLTPEDTAVYYCTKYVRAGNGYGEEDYWGQGTQVTVSS”: “high polyreactivity”; “QVQLEESGGGLVQAGGSLRLSCAASGLTFAYNTMGWYRQAPGKEREFVASISSSGGNTYYADSVKGRFTISRDNAKNTVYLQMNSLKPEDTAVYYCAAKKKYHYVASYKRFEYWGQGTQVTVSS”: “low polyreactivity”. Next, “QVQLVESGGGRDQAGGSLRLSCAASGSTFNGYAMGWYRQAPGKERELVAAISSRGGSTNYADSVKGRFTISRDNAKKTVYLQMNSLKPEDTAVYYCNAVYRRSRSVGSCFDDWGQVTQVTVSS”: “high polyreactivity”; “QVQLVESGGGLVQAGGSLRLSCAASGFIFPYYTMGWYGQARGKERELVAAISYSGGSTYYADSVKGRFTISRDKAKNTVYLQMNSLKPEDTAVYYCNADPPLIVYKVWFLLDYWGQGTQVTVTS”: “high polyreactivity”. Take “QVQHVESGGGLVQAGGSLRLSCAASGFIFPTYAMGWYRQAPGKERELVATITTNAGGTHYADSVKGRFTISRDNAKNTVYLQMNSLKPEDTAVYYCAAKQYRPKQRKYWTRIYDYWGQGTQVTVSS”: the “polyreactivity (PSR sort gate)” value is recorded as “low polyreactivity”. With “QVQLVESGGGLVQEGGSLRLSCAASGLIVGQNAMGWYRQAPGKDRELVAAISQRGGTYYADSVKGRFTISRDNAKNTVYLQMNSLKPEDTAVLYCAARVGLQPGRYYLRYDYWGQGTQVTVSS”, the “polyreactivity (PSR sort gate)” value was “low polyreactivity”. The entry for “QVQLVESGGGLVQAGGSLRLSCAASGITFYRYALGWYRQAPGKEREFVAAISRSGVSTYYADSVKGRFTISRDNAKNTVYLQMNSLKPEDTAVYYCNKVYYPGFGYEGDYWGQGTQVTVSS” is “high polyreactivity”; for “QVQLVESGGGLVQAGGSLRLSCAASGRTFEGNAMGWSRQAPGKERELVAAISGSGGRTYYADSVKGRFTISRDNAKNTVYLQMNSLKPEDTAVYYATLYSVYNPWRFNYWGQGTQVTVSS” it is “high polyreactivity”. The entry for “QVQLVESGGGLVQAGGSLRLSCAASGRTLVWYTMGWYRQAPGKEREFVAVITTGSGSTYYADSVKGRFTISRDNAKNTVYLQMNSLKPEDTAVYYCNAGYGGYSYHYPPYEYWGQGTLVTVSS” is “low polyreactivity”. The entry for “QVHLVESGGRLVQAGGSLRLSCAASGFIFQWYAMGWYRQAPGKERELVAAINSSGSTNYADSVKGRFTISRDNAKNTVYLQMNSLKPEDTAVYYCAAHWRYGRKFDYWGQGTQVTVSS” is “high polyreactivity”; for “QVQLVESGGGLVQAGGRLRLSCAASGYIFKSYVMGWYRQAPGKERELVAAITWSGGSTYYADSVKGRFTISRDNAKNTVYLQMNSLKPEDTAVYYCAAYPRRYRTTYDYWGQGTQVTVSS” it is “high polyreactivity”; for “QVQLVESGGGLVQAGGSLRLSCAASGSSFTWYAMGWYRQAPGKERELVAAITRGGSTYADSVKGRFTISRDNAKNTVYLQMNSLKPEDTAVYYCNAVYGVYDFNYWGQGTQVTVSS” it is “low polyreactivity”. As to “QVQLVESGGGLVQAGGSLRLSCAASGFTFGTNAMGWYRQAPGKEMELVAAITWSGGRTYYADSVKGRFTISRDNAKNTVYLQMNSRKQEDTAVYYCAKQYYRNKYEYWGQGTQVTVSS”, the “polyreactivity (PSR sort gate)” value is listed as “high polyreactivity”. With “QVQLVESGGGLVQAGGSLRLSCAASGTIFTNAMGCYRQEPGKERQLVAAISSSGGSTYYADSVKGRFTISRDNAKNTVYLQMNSLKPEDTAVYYCAADGEVSLWTGYDYDYWGKGTQVTVSS”, the “polyreactivity (PSR sort gate)” value is on record as “low polyreactivity”. Take “QVQLVESGGGLVQAGGSLRLSCAASGFTFARYAMGWYRQAPGKERELVAAISWSGARTYYADSVKGRFTISRDNAKNTVYLQMNSLKPEDTAVYYCNAVSGSSNFDYWGQGTQVTVSS”: the “polyreactivity (PSR sort gate)” value was “high polyreactivity”. The entry for “QEQLQESGGGMVQVGGTLRLSCAATGTIFIYGFLGWNRQAPGKERELVASINLGGITNYADSVKGRFTISRDNAKNTVYLQMISLKPEDTAVYYCAAYLVTGQNYGYWGQGTQVTVSS” is “low polyreactivity”; for “QVQLVESGGGLVQEGGSLRLSCADSGITFWAYAMGWYRQAPGKERELVASISSGGSTYYADSVKGRFTISRDNAKNTVYLQMNSLKPEDTAVYYCNTQDRSEYDWGQGTQVTVSS” it is “high polyreactivity”; for “QVEIVESGGGLVQAGGSLRLSCAASGSIFRWNAMGWYRQAPGKERELVAAISKRGTNTYYADSVKCRFTISRDNAKNTVYLQMNSLKPEDTAVYYCNAQGHRQNGLGDYWGQGTQVTVSS” it is “high polyreactivity”. Next, “QVQLVESGGGLVQAGGSLRLSCAASGSIFTTYAMGWYIQAPGKERELVAVISRRGGSTYYADSVKGRFTISRDNAKNTDYLQMNSLKPEDTAVYFCNAAYVWYRIFVRRDYWGQGTQVTVSS”: “high polyreactivity”. Next, “QVQLVESGGGLVQAGGSLRLSCAASGSTFRLYAMGWYRQAPGKERELVAAIRSGGNTNYADSVKGRFTISRDNAKNTVYLQMNSLKPEDTAVYYCAATYGTGRRSKYGYWGQGTQVTVSS”: “high polyreactivity”.

“QVQLVESGGGLVQAGGSLRLSCAASGRTFWFYGMGWYRQAPGKERELVADITSGGGTYYADSVKGRFTISRDNAKNTVYLQMNSLKPEDTAVYYCNAYKTHVVPATYDSEEYWGQGTQVTVSS”: the “polyreactivity (PSR sort gate)” value is on record as “low polyreactivity”.

Take “QVQLVESGGGLVQAGGSLRLSCAASGSTFFGYAMGWYRQAPGKERELVASITWSSGRTNYADSVKGRFTISRDNAKNTVFLQRYSVKPEETAVYYCAQVLDHQLYIDHWVRIYGYWGQGTQVTVSS”: the “polyreactivity (PSR sort gate)” value is reported as “low polyreactivity”. As to “QVQLVESGGGLVQAGGSLRLSCAASGSIFYGFDMGWYRQAPGKERELVATISWSSGSSTYYADTVKGRFTISRDNAKNTVYLQMNSLKPEETAVYYCAVDFAIGYRYQGRVDYWGQGTQVTVSS”, the “polyreactivity (PSR sort gate)” value is given as “low polyreactivity”. “QVQLVESGGGLVQAGGSLRLSCAASGRIFGFYALGWYRQAPGKEREFVASISVRGASTYADSVKGRFTISRDNAKNTVYLQMYSLKPEDTAVYYCNKAVANDDGLEYWGQGTQVTVSS”: the “polyreactivity (PSR sort gate)” value was “high polyreactivity”. For “QVQLVESGGGLVQAGGSLRLSCAASGITFLFYAMGWYRQAPGKERELVAAISRSGGSTYYADSVKGRFTISRDNAKNTVYLQMNSLKPEDTAVYYCAARSKDGGGPMYYWGQGTQVTVSS”, the “polyreactivity (PSR sort gate)” value is “high polyreactivity”.

As to “QVQLVESGGGLVQAGGSLRLSCAASGSMFSVYAMGGYRQAPGKEMELVAAISRSGGSTYYADSVKGRFTISRDTAKNTVYLQMNSLKPEDTAVYYCAARLAGRGSSSSRVVRTGGYWGQGTQVTVSS”, the “polyreactivity (PSR sort gate)” value is “high polyreactivity”. As to “QVQLVDSGGGLVQAGGSLRLSCAASGAIFEYYAMAWNRQAPGKERELVAAISWSGGSTYYADSVKGRFTISRDNAKNTVYLQMNSLKPEDTAVYYCAADYYLYQVYTGYDYWGQGTQVNVSS”, the “polyreactivity (PSR sort gate)” value is recorded as “low polyreactivity”. The entry for “QVQLVESGGGLVQAGGSLRLSCAASGRIFRWYAMGWYRQAPGKERELVAAITQGGGSTYYADSVKGRFTISRDNAKNTVYLQMNSLKPEDTAVYYCAARGRSVGSAGTSRYGYWGQGTQVTVSS” is “high polyreactivity”. Consider “QVQLVESGGGLVQAGGSLRLSCAASGITLYFYAMGWYRQAPWKERELVAAISRGGRTYYADSVKGRFTISRDNAKNTVYLQMNSLKPEDTAVYYCAARYTSEYSAFDYWGQGTQVTVSS”, for which the “polyreactivity (PSR sort gate)” value is “low polyreactivity”. As for “QVQLVETGPGLVQAGGSLRLSCAASGSIFGTYAMGWYRQAPGKERELVAAITGNGGRTYYADSVKGRFTISRDNAKNTVFLQMNSLKPEDTAVYYCAKATSRRGFYDWGPGTQVTVSS”, the “polyreactivity (PSR sort gate)” value was “high polyreactivity”. The entry for “QVQLVESGGGLVQAGGSLRLSCAASGSTFYRYALGWYRQAPGKERELVAAISRSGGNTFYADSVKGRFTISRDNAKNTVYLQMNRLKPEDTAVYYCAALRSWYAQTSGMDYWGQGTHVTVSS” is “high polyreactivity”; for “QVQLVESGGGLVQAGGSLRLSCAASGFTFVRYVMGWYRQAPGKERELVAAISRSGGSTHYADSVKGRFTISRDNAKNTVYLQMNSLKPEDTAVYYCNAYGYRHRGNGYWGQGTQVTVSS” it is “high polyreactivity”.

“QVQLVESGGGLVQAGGSLRLSCAASVFIFPHYTMGWYRQAPGKERELVAAISSSGGSTYYADSVKGRFTISRYNAKNTVYLQMNSLKPEDSADYYCPGPLPYYGQYDYWGQGTQVTVSS”: the “polyreactivity (PSR sort gate)” value is “low polyreactivity”. Take “QVQLVESGGGLVQAGGSLRLSCAASGRILGPNAMGWYRQAPGKERELVAAINSGGSTNYADSVKGRFTISRDNAKNTVYLQMNSLKPEDTAVSYCAPDKARVAGYGVEYDYWGQGTQVTVSS”: the “polyreactivity (PSR sort gate)” value is given as “low polyreactivity”.
